Target: T1, VEGFR-2-Fc domain 1&2&3 (Homo sapiens, UniProt P35968)
T1 chain: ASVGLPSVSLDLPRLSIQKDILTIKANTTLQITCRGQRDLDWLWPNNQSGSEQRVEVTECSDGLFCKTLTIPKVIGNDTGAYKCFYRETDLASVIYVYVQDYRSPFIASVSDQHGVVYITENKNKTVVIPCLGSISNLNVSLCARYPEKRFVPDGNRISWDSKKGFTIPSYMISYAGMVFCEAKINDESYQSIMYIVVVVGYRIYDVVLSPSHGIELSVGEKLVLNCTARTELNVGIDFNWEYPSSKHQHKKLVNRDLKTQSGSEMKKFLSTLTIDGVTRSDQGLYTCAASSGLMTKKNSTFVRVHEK
Assay: biolayer interferometry

B1: VEGF-165 (protein)
chain: MTDRQTDTAPSPSYHLLPGRRRTVDAAASRGQGPEPAPGGGVEGVGARGVALKLFVQLLGCSRFGGAVVRAGEAEPSGAARSASSGREEPQPEEGEEEEEKEEERGPQWRLGARKPGSWTGEAAVCADSAPAARAPQALARASGRGGRVARRGAEESGPPHSPSRRGSASRAGPGRASETMNFLLSWVHWSLALLLYLHHAKWSQAAPMAEGGGQNHHEVVKFMDVYQRSYCHPIETLVDIFQEYPDEIEYIFKPSCVPLMRCGGCCNDEGLECVPTEESNITMQIMRIKPHQGQHIGEMSFLQHNKCECRPKKDRARQEKKSVRGKGKGQKRKRKKSRYKSWSVPCGPCSERRKHLFVQDPQTCKCSCKNTDSRCKARQLELNERTCRCDKPRR
With B1 the Kd was 0.0035 µM.

For Ac-ESNITMQIMRIKPHQGQHIGEMSFLQHMK-NH2 [VEGF73-101], the Kd was about 124 µM.
